Laboratory results reported in patent US20090093061A1.

Columns and labels:
Experiment in all cases: GroEL-490 bead column capture of denatured serum, ATP elution, LC-MS-MS
[1] = biological target: 3-phosphoinositide dependent protein kinase-1 (Homo sapiens) (UniProt O15530)
[2] = biological target: DNA fragmentation factor, 45 kD, alpha polypeptide (Homo sapiens) (UniProt O00273)
[3] = biological target: E74-like factor 4 (ets domain transcription factor) (Homo sapiens) (UniProt Q99607)
[4] = biological target: H factor 1 (complement) (Homo sapiens) (UniProt P08603)
[5] = biological target: H2A histone family, member X (Homo sapiens) (UniProt P16104)
KIAA0317 (Homo sapiens) = KIAA0317 (Homo sapiens) (UniProt O15033)
[6] = biological target: MAP/ERK kinase kinase 4 isoform a (Homo sapiens) (UniProt Q9Y6R4)
[7] = biological target: MAX dimerization protein 5 (Homo sapiens) (UniProt Q8IWI9)
[8] = biological target: PDZ domain-containing guanine nucleotide exchange factor I (Homo sapiens) (UniProt Q8TEU7)
[9] = biological target: POU domain, class 2, transcription factor 1 (Homo sapiens) (UniProt P14859)
[10] = biological target: RAN-binding protein 2-like 1 isoform 1 (Homo sapiens) (UniProt Q99666)
[11] = biological target: apical protein of Xenopus-like (Homo sapiens) (UniProt Q13796)
[12] = biological target: apolipoprotein B precursor (Homo sapiens) (UniProt P04114)
[13] = biological target: brefeldin A-inhibited guanine nucleotide-exchange protein 1 (Homo sapiens) (UniProt Q9Y6D6)
[14] = biological target: chondroitin sulfate proteoglycan 6 (bamacan) (Homo sapiens) (UniProt Q9UQE7)
[15] = biological target: coronin, actin binding protein, 1B (Homo sapiens) (UniProt Q9BR76)
[16] = biological target: ectonucleoside triphosphate diphosphohydrolase 7 (Homo sapiens) (UniProt Q9NQZ7)
[17] = biological target: glutaminase C (Homo sapiens) (UniProt O94925)
[18] = biological target: human immunodeficiency virus type I enhancer binding protein 2 (Homo sapiens) (UniProt P31629)
[19] = biological target: hypothetical protein FLJ12178 (Homo sapiens)
[20] = biological target: hypothetical protein XP_376158 (Homo sapiens)
[21] = biological target: inter-alpha (globulin) inhibitor, H2 polypeptide (Homo sapiens) (UniProt P19823)
[22] = biological target: microfilament and actin filament cross-linker protein isoform a (UniProt Q9UPN3)
[23] = biological target: myocardin-related transcription factor B (Homo sapiens) (UniProt Q9ULH7)
[24] = biological target: neutral sphingomyelinase (N-SMase) activation associated factor (Homo sapiens) (UniProt Q92636)
[25] = biological target: odd Oz/Ten-m homolog 3 (Homo sapiens) (UniProt Q9P273)
[26] = biological target: phosphoinositol 3-phosphate-binding protein-2 (Homo sapiens) (UniProt Q9HAU0)
[27] = biological target: similar to BC331191_1 (Homo sapiens)
[28] = biological target: similar to CXYorf1-related protein (Homo sapiens)
[29] = biological target: similar to hypothetical protein (Homo sapiens)
[30] = biological target: transferrin (Homo sapiens) (UniProt P02787)
[31] = biological target: tripartite motif protein TRIM14 isoform alpha (Homo sapiens) (UniProt Q14142)
[32] = biological target: zinc finger protein 28 (Homo sapiens) (UniProt Q8NHY6)

Chain of GroEL having Aspartate 490 substituted with Cysteine, biotinylated and conjugated onto NeutrAvidin beads (A1AJ51 whole entry D490C): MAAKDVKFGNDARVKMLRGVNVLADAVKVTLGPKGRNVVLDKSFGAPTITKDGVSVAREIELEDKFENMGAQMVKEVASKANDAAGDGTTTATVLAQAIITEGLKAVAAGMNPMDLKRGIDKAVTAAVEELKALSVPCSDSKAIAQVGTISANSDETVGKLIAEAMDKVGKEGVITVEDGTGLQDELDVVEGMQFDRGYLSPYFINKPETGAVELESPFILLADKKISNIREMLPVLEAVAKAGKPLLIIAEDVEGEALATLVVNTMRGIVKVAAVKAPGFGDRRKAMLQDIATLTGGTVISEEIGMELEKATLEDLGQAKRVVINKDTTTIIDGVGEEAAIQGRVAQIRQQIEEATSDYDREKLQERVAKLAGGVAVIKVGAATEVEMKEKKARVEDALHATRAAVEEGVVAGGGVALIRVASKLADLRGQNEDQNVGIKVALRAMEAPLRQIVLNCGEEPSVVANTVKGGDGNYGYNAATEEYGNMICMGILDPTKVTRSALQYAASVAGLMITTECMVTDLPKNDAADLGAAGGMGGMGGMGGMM
Chain of myocardin-related transcription factor B (Homo sapiens) (Q9ULH7 other isoform, or with tags, fused parts or gaps limits assumed): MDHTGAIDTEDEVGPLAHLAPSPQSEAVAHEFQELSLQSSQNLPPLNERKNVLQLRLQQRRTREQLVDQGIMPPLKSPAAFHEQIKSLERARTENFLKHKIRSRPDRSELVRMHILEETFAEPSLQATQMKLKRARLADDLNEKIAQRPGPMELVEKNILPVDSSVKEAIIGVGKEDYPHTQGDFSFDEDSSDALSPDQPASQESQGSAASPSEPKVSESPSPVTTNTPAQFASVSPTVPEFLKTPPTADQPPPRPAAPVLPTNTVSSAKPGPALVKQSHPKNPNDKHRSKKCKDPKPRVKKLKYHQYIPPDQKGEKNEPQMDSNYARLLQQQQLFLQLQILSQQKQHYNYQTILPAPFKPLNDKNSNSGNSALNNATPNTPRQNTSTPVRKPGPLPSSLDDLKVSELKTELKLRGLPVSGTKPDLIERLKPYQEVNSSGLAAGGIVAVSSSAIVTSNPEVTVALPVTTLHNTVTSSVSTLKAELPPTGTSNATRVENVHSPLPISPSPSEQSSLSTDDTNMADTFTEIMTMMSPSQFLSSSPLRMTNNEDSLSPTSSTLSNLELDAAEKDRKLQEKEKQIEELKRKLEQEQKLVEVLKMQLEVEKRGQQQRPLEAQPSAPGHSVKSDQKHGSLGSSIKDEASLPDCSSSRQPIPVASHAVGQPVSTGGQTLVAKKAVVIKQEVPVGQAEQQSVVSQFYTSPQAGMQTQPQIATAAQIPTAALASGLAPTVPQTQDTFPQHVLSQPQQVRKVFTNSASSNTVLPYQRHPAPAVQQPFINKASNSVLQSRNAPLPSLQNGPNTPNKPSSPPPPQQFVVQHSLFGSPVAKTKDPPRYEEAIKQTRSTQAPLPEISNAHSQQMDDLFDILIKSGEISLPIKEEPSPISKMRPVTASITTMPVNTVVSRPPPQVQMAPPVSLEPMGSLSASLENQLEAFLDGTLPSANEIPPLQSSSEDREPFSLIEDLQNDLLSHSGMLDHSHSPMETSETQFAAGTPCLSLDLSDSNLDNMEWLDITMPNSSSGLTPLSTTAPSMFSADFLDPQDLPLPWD
Chain of neutral sphingomyelinase (N-SMase) activation associated factor (Homo sapiens) (Q92636 whole entry): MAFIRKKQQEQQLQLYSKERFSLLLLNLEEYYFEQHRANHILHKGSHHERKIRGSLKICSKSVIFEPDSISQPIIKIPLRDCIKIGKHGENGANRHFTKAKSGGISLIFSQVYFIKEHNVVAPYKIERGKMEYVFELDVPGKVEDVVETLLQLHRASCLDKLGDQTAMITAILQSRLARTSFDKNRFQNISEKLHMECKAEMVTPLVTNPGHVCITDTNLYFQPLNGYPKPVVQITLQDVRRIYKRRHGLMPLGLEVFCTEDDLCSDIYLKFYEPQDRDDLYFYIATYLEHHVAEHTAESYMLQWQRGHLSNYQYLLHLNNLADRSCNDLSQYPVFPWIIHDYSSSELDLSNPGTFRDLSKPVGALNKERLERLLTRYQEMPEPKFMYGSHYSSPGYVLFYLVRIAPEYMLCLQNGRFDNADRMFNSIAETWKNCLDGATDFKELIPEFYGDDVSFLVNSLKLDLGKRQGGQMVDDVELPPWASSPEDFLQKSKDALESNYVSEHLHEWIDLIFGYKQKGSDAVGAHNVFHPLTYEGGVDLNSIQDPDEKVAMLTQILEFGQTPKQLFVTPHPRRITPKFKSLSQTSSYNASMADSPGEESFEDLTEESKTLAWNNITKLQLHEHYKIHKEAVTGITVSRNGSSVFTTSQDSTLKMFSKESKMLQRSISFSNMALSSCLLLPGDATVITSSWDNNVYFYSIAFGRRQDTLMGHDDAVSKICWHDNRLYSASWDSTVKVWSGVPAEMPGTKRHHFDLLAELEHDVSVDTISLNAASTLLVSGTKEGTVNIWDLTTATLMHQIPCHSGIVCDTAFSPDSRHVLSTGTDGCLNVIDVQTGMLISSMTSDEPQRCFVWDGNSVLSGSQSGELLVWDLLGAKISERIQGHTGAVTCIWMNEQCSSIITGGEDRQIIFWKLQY
Chain of inter-alpha (globulin) inhibitor, H2 polypeptide (Homo sapiens) (P19823 55-702): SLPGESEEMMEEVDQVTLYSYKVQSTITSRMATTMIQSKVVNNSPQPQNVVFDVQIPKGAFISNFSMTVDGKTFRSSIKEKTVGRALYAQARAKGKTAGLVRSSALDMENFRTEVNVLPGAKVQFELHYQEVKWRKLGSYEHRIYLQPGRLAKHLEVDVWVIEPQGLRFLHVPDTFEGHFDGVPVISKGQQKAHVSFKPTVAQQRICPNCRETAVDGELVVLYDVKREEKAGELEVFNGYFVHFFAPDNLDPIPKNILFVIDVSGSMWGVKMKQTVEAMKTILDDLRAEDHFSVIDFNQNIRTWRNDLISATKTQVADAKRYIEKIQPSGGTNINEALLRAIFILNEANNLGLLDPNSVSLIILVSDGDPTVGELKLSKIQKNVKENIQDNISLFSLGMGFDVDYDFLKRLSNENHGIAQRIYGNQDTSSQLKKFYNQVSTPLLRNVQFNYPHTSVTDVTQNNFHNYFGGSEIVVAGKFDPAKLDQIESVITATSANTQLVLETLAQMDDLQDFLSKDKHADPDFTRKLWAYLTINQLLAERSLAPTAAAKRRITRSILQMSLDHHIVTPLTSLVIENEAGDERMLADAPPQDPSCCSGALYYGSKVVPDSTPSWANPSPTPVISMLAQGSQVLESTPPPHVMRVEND
Chain of phosphoinositol 3-phosphate-binding protein-2 (Homo sapiens) (Q9HAU0 2-1116 limits assumed): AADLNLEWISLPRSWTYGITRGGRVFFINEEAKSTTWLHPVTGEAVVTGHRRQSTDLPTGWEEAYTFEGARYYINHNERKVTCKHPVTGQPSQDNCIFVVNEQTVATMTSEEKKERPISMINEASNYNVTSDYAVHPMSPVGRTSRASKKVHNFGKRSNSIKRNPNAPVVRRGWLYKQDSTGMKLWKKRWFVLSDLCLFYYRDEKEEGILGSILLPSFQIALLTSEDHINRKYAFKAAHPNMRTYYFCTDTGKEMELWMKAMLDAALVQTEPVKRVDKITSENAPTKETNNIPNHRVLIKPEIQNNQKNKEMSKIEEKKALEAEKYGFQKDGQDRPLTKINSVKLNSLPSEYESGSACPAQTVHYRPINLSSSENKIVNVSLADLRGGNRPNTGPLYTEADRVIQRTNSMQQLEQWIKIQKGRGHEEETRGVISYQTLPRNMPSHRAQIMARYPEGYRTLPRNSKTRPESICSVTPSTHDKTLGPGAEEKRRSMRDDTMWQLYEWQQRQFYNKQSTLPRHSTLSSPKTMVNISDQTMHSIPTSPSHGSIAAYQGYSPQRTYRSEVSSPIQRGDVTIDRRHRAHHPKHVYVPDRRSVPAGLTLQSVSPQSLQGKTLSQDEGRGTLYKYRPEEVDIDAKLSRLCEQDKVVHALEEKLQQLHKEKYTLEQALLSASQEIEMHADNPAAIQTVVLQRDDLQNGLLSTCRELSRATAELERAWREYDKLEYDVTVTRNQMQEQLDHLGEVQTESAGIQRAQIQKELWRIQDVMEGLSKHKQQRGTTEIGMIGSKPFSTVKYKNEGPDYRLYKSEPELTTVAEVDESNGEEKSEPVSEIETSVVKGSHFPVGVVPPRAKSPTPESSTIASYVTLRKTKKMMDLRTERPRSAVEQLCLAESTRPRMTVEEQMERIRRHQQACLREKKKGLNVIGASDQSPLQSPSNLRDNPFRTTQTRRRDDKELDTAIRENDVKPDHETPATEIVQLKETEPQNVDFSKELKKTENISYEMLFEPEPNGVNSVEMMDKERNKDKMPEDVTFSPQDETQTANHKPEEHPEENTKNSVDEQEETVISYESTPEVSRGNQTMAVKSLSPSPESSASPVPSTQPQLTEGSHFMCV
Chain of similar to CXYorf1-related protein (Homo sapiens) (A8K0Z3 whole entry): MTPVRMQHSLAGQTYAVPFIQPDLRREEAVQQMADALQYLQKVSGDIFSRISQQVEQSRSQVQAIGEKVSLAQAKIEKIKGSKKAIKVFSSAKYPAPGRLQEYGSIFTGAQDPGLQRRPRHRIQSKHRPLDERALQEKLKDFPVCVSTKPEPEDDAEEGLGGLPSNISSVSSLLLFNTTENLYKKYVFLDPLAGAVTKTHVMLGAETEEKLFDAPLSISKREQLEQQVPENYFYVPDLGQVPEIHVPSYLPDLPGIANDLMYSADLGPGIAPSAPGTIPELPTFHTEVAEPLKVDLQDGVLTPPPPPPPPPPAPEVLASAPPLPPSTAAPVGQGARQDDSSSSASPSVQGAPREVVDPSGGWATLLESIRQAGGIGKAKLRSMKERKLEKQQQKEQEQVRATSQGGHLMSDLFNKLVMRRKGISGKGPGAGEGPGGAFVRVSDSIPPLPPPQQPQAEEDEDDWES
Chain of DNA fragmentation factor, 45 kD, alpha polypeptide (Homo sapiens) (O00273 whole entry, the tested form may be a part): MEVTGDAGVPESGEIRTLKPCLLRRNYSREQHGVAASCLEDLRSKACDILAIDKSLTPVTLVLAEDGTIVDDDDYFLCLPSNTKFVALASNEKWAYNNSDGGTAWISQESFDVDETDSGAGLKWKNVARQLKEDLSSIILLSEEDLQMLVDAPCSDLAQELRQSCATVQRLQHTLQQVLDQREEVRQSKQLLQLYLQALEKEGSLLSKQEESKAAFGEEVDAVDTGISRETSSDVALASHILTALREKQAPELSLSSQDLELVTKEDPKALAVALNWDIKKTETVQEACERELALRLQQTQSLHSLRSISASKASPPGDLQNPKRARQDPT

GroEL having Aspartate 490 substituted with Cysteine, biotinylated and conjugated onto NeutrAvidin beads (from UniProt A1AJ51 1-548)
Spectrum Count [1]: 13 count
Spectrum Count [2]: 14 count
Spectrum Count [3]: 17 count
Spectrum Count [4]: 12 count
Spectrum Count [5]: 41 count
Spectrum Count (KIAA0317 (Homo sapiens)): 10 count
Spectrum Count [6]: 13 count
Spectrum Count [7]: 33 count
Spectrum Count [8]: 9 count
Spectrum Count [9]: 11 count
Spectrum Count [10]: 11 count
Spectrum Count [11]: 11 count
Spectrum Count [12]: 19 count
Spectrum Count [13]: 11 count
Spectrum Count [14]: 9 count
Spectrum Count [15]: 28 count
Spectrum Count [16]: 41 count
Spectrum Count [17]: 27 count
Spectrum Count [18]: 14 count
Spectrum Count [19]: 9 count
Spectrum Count [20]: 15 count
Spectrum Count [21]: 10 count
Spectrum Count [22]: 10 count
Spectrum Count [23]: 16 count
Spectrum Count [24]: 9 count
Spectrum Count [25]: 14 count
Spectrum Count [26]: 9 count
Spectrum Count [27]: 19 count
Spectrum Count [28]: 110 count
Spectrum Count [29]: 13 count
Spectrum Count [30]: 60 count
Spectrum Count [31]: 21 count
Spectrum Count [32]: 18 count
